The record followed here is patent US20240033374A1, “Nano-structural Protein Degradation Tool, Use, and Preparation Method thereof, and Lipid-based Protein Degradation Tool, Use, and Preparation Method thereof” (HENAN UNIVERSITY, priority 2022, published 2024).

For data set [1], the target named is T1, β-amyloid 1-42 oligomer (Homo sapiens, UniProt P05067).
T1 construct: oligomers prepared from FITC green dye-labeled β-amyloid 1-42 polypeptide; host or cells: exogenous peptide added to human glial cells
Nature of the data set: Endocytosis of FITC-labeled β-amyloid 1-42 oligomer in human glial cells, confocal microscope. Type of data set: cell-based. The following applies: 10 μM, 12 hours. On the procedure: 1 μM FITC fluorescein-labeled 5 μM β-amyloid oligomer and AB-NP were co-cultured in human glial cells for 4 hours, subsequently extracellular solution was washed away with PBS. […] The lysosome theoretically can degrade β-amyloid so as to eliminate toxicity brought about by β-amyloid extracellular accumulation. (3) β-amyloid hijack experiment: 10 μM oligomers prepared from FITC green dye-labeled 3-amyloid 1-42 peptide and 10 μM AV45-NP were co-incubated, then, the treated residue not entering the cell was washed off with PBS, followed by confocal microscope imaging, to detect green fluorescence of the β-amyloid 1-42 oligomers. […] The lysosomal dye lysoTracker was used to label the lysosome. […] 10 μM AV-45 or AV45-NP and 10 μM FITC green fluorescence dye-labeled β-amyloid oligomers were co-incubated in culture medium and treated human glial cells for 12 hours.

Data set [2] relates to human glioma in situ. In words: In situ glioma model, immunohistochemical detection of EGFR and PCNA. The data set is classed as in vivo, nude mice. The following applies: 10 mg/kg intravenous, every other day, 5 times. On the procedure: The administration was performed once every other day, 5 times in total, and after the administration cycle was completed, the mice were euthanized the next day, the brain tissues were taken and paraffin-embedded, and sectioned for immunohistochemical staining to study the protein degradation effect of NTZ on target protein EGFR and the tumor inhibition by detecting the tumor proliferation marker PCNA.

For data set [3], the target named is T2, EGFR (Homo sapiens, UniProt P00533).
T2 construct: can degrade the membrane receptor protein EGFR in various tumor cells; endogenous in cells; host or cells: MDA-MB-231 (M231), HeLa, U87
Nature of the data set: EGFR protein degradation in cells, protein electrophoresis (Western blot). Type of data set: cell-based. On the procedure: In the above, the NP group refers to nanoparticles not linked with the POI recognition groups in the example. In all the examples involving multi-concentration test, the control group for POI recognition group and the control group for lipid hybrid substance were treated with the molar concentration equal to the highest concentration in concentration test group. All the protein electropherograms take GAPDH or VIN (vinculin) as internal reference.

Data set [4] deals with HepG2 cells. Nature of the data set: CCK8 cell viability assay. Type of data set: cell-based, human. The conditions noted are these: 500 nM antibody, 24 h, p<0.001. (Tetrazolium assays rely on reduction of a dye to a coloured formazan, in cell work by metabolically active cells.)
In data set [5] the test system is M231 tumor.
Experimental: Administration every other day (15 mg/kg) was started on day 10 of inoculation of M231 tumor in female nude mice at 6-8 weeks of age, and a volume of the tumor (tumor length: a and width: b, volume calculation formula: ½ab^2) of the mice and body weight change were continuously monitored. After two weeks of administration, 7 times in total, the mice were euthanized the next day after the last administration, tumor tissues were isolated, and the tumor tissues were subjected to protein electrophoresis and immunofluorescence detection.
In the above, after being isolated, the tumor tissues were paraffin-embedded and sectioned, followed by immunofluorescence staining, and immunofluorescence staining results of EGFR and apoptotic core signal cleaved caspase-3 were detected.
The target in data set [6] is T2, EGFR. In words: EGFR on cell surfaces, immunofluorescent staining and confocal microscopy, M231 cells. The data set is classed as cell-based. The following applies: 500 nM antibodies, 24 hours.
A short description of data set [7]: Acute toxicity, blood parameters of liver and kidney function after a single administration. The data set is classed as in vivo, mice. The following applies: 10 mg/kg via tail vein, blood 12 hours after injection. On the procedure:
In the present example, acute hepatotoxicity on mice by the NTZ-NP nano-structural protein degradation tool was studied. The nanoparticles, the solvent PBS control, NTZ antibodies of equal molar quantity, and NP of equal molar quantity without NTZ antibodies (10 mg/kg) were injected into mice via tail vein, blood was taken 12 hours after injection, and blood biochemical indicators were detected by a kit.

A short description of data set [8]: Dynamic light scattering particle size and PDI. Type of data set: physicochemical. The text has this: FIG. 68 is a structural schematic diagram of CTX-RBCmD. FIG. 69 is a diagram of DLS particle size distribution results.
The target in data set [9] is T3, EGFP-labeled fused EGFR (Homo sapiens, UniProt P00533).
T3 construct: expressed in transfected cells; host or cells: MDA-MB-231 (M231)
In words: Live-cell confocal imaging of EGFP-fused EGFR in M231 cells. The conditions noted are these: M231 living cells, fixed visual field, photographed continuously. The data set is classed as cell-based.

Data set [10] has as its target T4, PD-1 receptor protein (Homo sapiens, UniProt Q15116).
T4 construct: expressed in transfected cells; host or cells: JURKAT cells overexpressing PD-1
Nature of the data set: PD-1 expression in JURKAT cells overexpressing PD-1, protein electrophoresis. The following applies: JURKAT cells overexpressing PD-1, 500 nM, 24 h. The data set is classed as cell-based.

Setting [11] is: M231 cells, 500 nM, fresh medium without treatment from the 24th hour.

T4 sequence (Q15116 25-288): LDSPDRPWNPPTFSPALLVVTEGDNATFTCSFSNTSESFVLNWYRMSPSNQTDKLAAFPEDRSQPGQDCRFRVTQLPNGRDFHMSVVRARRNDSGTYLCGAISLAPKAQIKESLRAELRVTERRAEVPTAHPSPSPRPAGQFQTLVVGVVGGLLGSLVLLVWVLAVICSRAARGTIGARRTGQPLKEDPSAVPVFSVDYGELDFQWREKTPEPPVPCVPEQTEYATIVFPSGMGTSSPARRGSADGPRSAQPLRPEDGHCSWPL
T1 sequence (P05067 672-713 limits assumed): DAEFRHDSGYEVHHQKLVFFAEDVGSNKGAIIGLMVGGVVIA

Regarding `CNc1ccc(/C=C/c2ccc(OCCOCCOCCF)nc2)cc1` [AV45, AV-45], the “AV45 autofluorescence in cells (cell internalization)” value in data set [1] was “very weak”.

As for “ANG/NTZ-NP: NTZ-PEG-DSPE plus 20% Angiopep2-PEG-DSPE self-assembled with PLGA”, in [2], the “EGFR in brain tumor (immunohistochemistry)” value is “solvent PBS control group and the NTZ-NP group are stronger than the ANG/NTZ-NP group”; the “proliferation marker PCNA in brain tumor (immunohistochemistry)” value was “solvent PBS control group and the NTZ-NP group are stronger than the ANG/NTZ-NP group”.

As to “NTZ-LNP2: NTZ-PEG-DMG with HSPC + cholesterol + DOTAP lipid nanoparticle”, in data set [3] (M231 cells, 24 h, concentration not given), the “EGFR protein expression (protein electrophoresis)” value is on record as “can effectively degrade the target protein EGFR”.

“NTZ-NP: PLGA nanoparticle core, PEG-DSPE intermediate layer, NTZ antibodies at periphery”: the “cell proliferation (CCK8 cell viability)” value in data set [4] is recorded as “significantly inhibited”. Also, in data set [3] (HeLa cells, 500 nM, 24 h), the “EGFR expression (protein electrophoresis)” value is given as “obvious decreases in EGFR expression”. Besides, in data set [3] (M231 cells, 500 nM, 24 h), the “EGFR protein level / expression (protein electrophoresis)” value is given as “obvious decreases in EGFR expression”. Besides, in data set [3] (setting [11]), the “EGFR gradually recovered after” value is over 72 h and the “optimal degradation time for a single treatment” value is 24 to 48 h. Moreover, the “concentration at which EGFR is effectively degraded (as low as)” value in data set [3] (M231 cells, 24 h) was 10 nM. Also, in [3] (U87 cells, 500 nM, 24 h), the “EGFR expression (protein electrophoresis)” value is reported as “obvious decreases in EGFR expression”. Further, in data set [5] (15 mg/kg every other day, 7 times, five mice, p<0.05), the “EGFR protein expression level in isolated tumor tissues (protein electrophoresis)” value was “significantly down-regulated”. Also, the tumor volume proliferation entry in [5] (15 mg/kg every other day, 7 times, versus PBS, equal molar NTZ antibody and antibody-free nanoparticle groups) is recorded as “obviously inhibited”. Besides, in [5] (after treatment completed), the “EGFR signal in tumor tissues (immunofluorescence staining)” value is given as “EGFR signal is reduced” and the “apoptotic signal cleaved caspase-3 in tumor tissues (immunofluorescence staining)” value was “apoptotic signal rises”. In addition, the “EGFR expression on cell surfaces (immunofluorescence)” value in data set [6] is on record as “remarkably decreased”. Also, the “blood parameters BUN, UA, CR, ALB, ALP, ALT, AST” value in data set [7] was “no obvious abnormality”. Moreover, in [8], the “particle size (dynamic light scattering)” value is listed as “about 150 nm”. For the same molecule, the “green fluorescence signal of EGFP-labeled fused EGFR” value in data set [9] is reported as “gradually decreases over time”. In data set [2], the “EGFR in brain tumor (immunohistochemistry)” value is recorded as “stronger than the ANG/NTZ-NP group” and the “proliferation marker PCNA in brain tumor (immunohistochemistry)” value was “stronger than the ANG/NTZ-NP group”.

Consider “NTZ-PEGlipo: NTZ antibody coupled to NHS-PEG liposomes (HSPC + cholesterol)”, for which the “EGFR protein level / expression (protein electrophoresis)” value in data set [3] (M231 cells, 500 nM, 24 h) was “can effectively degrade the target protein EGFR”.

On to “NTZ-lipoP: NTZ-PEG-DSPE on HSPC/cholesterol lipid membrane wrapping PLGA nanoparticles”, for which, in data set [8], the “SIZE (DLS particle size)” value was found to be 257 ± 7.0.

B1: CRLZ-NP: Camrelizumab (CRLZ), PEG-DSPE linker, PLGA nanoparticle (conjugate, chains of the INN, looked up)
VH: EVQLVESGGGLVQPGGSLRLSCAASGFTFSSYMMSWVRQAPGKGLEWVATISGGGANTYYPDSVKGRFTISRDNAKNSLYLQMNSLRAEDTAVYYCARQLYYFDYWGQGTTVTVSS
VL: DIQMTQSPSSLSASVGDRVTITCLASQTIGTWLTWYQQKPGKAPKLLIYTATSLADGVPSRFSGSGSGTDFTLTISSLQPEDFATYYCQQVYSIPWTFGGGTKVEIK
modifications: PEG-DSPE PLGA nanoparticle
On to B1, for which the “expression of PD-1 receptor protein” value in data set [10] is given as “obviously reduced”.
